This is an account of results in paper PMC3156243, “Properties and Crystal Structure of Methylenetetrahydrofolate Reductase from Thermus thermophilus HB8” (PLoS ONE, 2011).

Assay in all cases: purified protein
Substrate in series [1]: Nc1nc2c(c(=O)[nH]1)N1CN(c3ccc(C(=O)N[C@@H](CCC(=O)O)C(=O)O)cc3)C[C@H]1CN2
The conditions noted are these: FAD; 50.0 °C.

Substrate in series [2]: Cc1cc2nc3c(=O)[nH]c(=O)nc-3n(C[C@H](O)[C@H](O)[C@H](O)COP(=O)(O)OP(=O)(O)OC[C@H]3O[C@@H](n4cnc5c(N)ncnc54)[C@H](O)[C@@H]3O)c2cc1C
The conditions noted are these: active center of the β[…]α[…] barrel; Glu18 near the si-face of the isoalloxazine ring, Asp109 near C2; non-covalently bound; varied: cofactor.

Substrate in series [3]: NC(=O)C1=CN([C@@H]2O[C@H](COP(=O)(O)OP(=O)(O)OC[C@H]3O[C@@H](n4cnc5c(N)ncnc54)[C@H](O)[C@@H]3O)[C@@H](O)[C@H]2O)C=CC1
The conditions noted are these: FAD; 25.0 °C.

B1: MTHFR (methylenetetrahydrofolate reductase) (Thermus thermophilus HB8) (protein)
chain: MKIRDLLKARRGPLFSFEFFPPKDPEGEEALFRTLEELKAFRPAFVSITYGAMGSTRERSVAWAQRIQSLGLNPLAHLTVAGQSRKEVAEVLHRFVESGVENLLALRGDPPRGERVFRPHPEGFRYAAELVALIRERYGDRVSVGGAAYPEGHPESESLEADLRHFKAKVEAGLDFAITQLFFNNAHYFGFLERARRAGIGIPILPGIMPVTSYRQLRRFTEVCGASIPGPLLAKLERHQDDPKAVLEIGVEHAVRQVAELLEAGVEGVHFYTLNKSPATRMVLERLGLRPASGQP
The term Km denotes the concentration of substrate that gives half-maximal velocity. In the case of B1, the Km in “purified protein [1]” was found to be 180 ± 23 µM; in the series “purified protein [2]”, 5 µM; in the series “purified protein [3]”, 9.7 ± 2.1 µM.
